Experimental data taken from US20140287419A1, “Compositions Having Dicamba Decarboxylase Activity and Methods of Use” (priority 2013, published 2014).

Assay: 14C assay with IPTG-induced recombinant E. coli cells (14CO2 capture from [14C]-carboxyl-labeled dicamba)
Conditions: for Dicamba Decarboxylase Activity: IPTG-induced recombinant E. coli cells, [14C]-carboxyl-labeled dicamba, 14CO2 capture; for Enzymatic Detection level: dicamba decarboxylation activity of the protein of the given SEQ ID NO

B1: 61 (protein, listed as Gordonia amarae)
chain: MATGAGSGVPSPADRVIVRSPGVIDVHAHAVLPMSLGCAGAAGPEIGYREDGSPFFRVGEYVLNGVRYEGSAFMDPEVRVAAMDAAGIGLQMISPNPITYFTRLDARSATDYARAHNDAIAEAAGRHPGRLVGAAQLPMQDVPAAIAELERSVRELGLVAAYIDTDIGDRTLDAPELDDFYSAAVELDVPVFIHPSPVGQEGPPDDTRLRRFDLDLLLGFSYDETLAVAALVFGGVLERHPALDVCLSHGGGTLAFVAGRFARAVAKPRAWVPEFLVENGIESYLRRLWLDTHVHSAGSLRLLIDTVGTDRLVFGTNFAGWDADGATEVDALGDLRETTTANAAHLLRLGRA
Dicamba Decarboxylase Activity: No | Enzymatic Detection level: No

B2: 59 (protein)
chain: MAPSVIDAHAHFLPGSLVTALRSRSDAPDIRTDSNGGESFGIYRTRMPYGRTYDALDVRLARMDELGVDRQILSLPGLFGIDSRPVSQALPLVRAFNDGVADLVRKHPDRFSGIAALPLADLDAAQEEYRRARGDLGLSGLILPGDTFVSVAAAERVRPLFELAATIGGLIFVHPGPLPDETGSAVDAPAPHTDSVVHRRVTVDIQNRMTEVMVTLALTDFLAPYPSVPVQVANLGGSLPFVIERMDHVYALRNPEAPPPSLSLRSLYVDAASLGPRAIALAAEVYGADRVLFGSDYPIFDDGRCLDAVRQTRLSPDARALIAGGNAARMLTQT
modifications: alpha proteobacterium
Dicamba Decarboxylase Activity: No | Enzymatic Detection level: No

B3: 58 (protein)
chain: MARVIALEEHYATTEFLRGPGTWLASRPGIVEPAGDLGDGRIAAMDQAGVDLAVLSLAAPGVEQLDPDDAVRLARDCNDQLAAAVRRYPDRLAGFATVPTSAPDRAADELERAVRGLGFPGAVINGHSRGRYLDDPFFEPVLARAAELQAPIYLHPTIPPAGVIESSYAGFAEPVTFALATVGWGWHINTATHALRMILGGVFDRHPSLQMIIGHMGEATSFMLPRFDATLKPELTGLNHPVSSYLRENFHYTFANFNDHATYANLVAQVGIERVAFSADYPFGSMVDARAFLDGLPLSDDERAAISHRNAEKLLGL
modifications: Mycobacterium colombiense
Dicamba Decarboxylase Activity: High | Enzymatic Detection level: High

B4: 56 (protein)
chain: MAKIICLEEHYLDSELGRACMPVALEQAPFLGDWGKTVADGHNPDRSRPQIEKNALINAKGADLGSRRLRDMDEAGITLQILSVGGFPQLAPEDEAVTLNTAANDRLAEAVRNHPDRFAAFATLPWAQPKDAENELVRAVEKLGFKGALLNGRPSSCFLDHPDYDSLLSRFNKLNVPLYLHPGLPLKSVQQAYFTGFSAEVNARLSMFGWGWHHEAGIHLLRLMLSGAFDKYPNMQVISGHWGEMLPFWLQRLDDSLPLAATGLSRTLTRTFQEHVYVTPSGMLTLPHFKFIYELMGAERILFSVDYPYQTLDGVKTFIDSLPVNKAEKEAIAFRNAERLLGITA
modifications: Enterobacter aerogenes
Dicamba Decarboxylase Activity: High | Enzymatic Detection level: High

B5: 5 (protein, listed as Staphylococcus aureus)
chain: MAQNNMEANQMKSITFEEHYVIEDIQKETMNAISADPKGVPMKVMLEGLEKKTGFTNADELSHHDERIQFMNNQDVQIQVLSYGNGSPSNLVGQKAIELCQKANDQLANYIAQYPNRFVGFATLPINEPEAAAREFERCINDLGFKGALIMGRAQDGFLDQDKYDIIFKTAENLGVPIYLHPAPVNSDIYQSYYKGNYPEVTAATFACFGYGWHIDVGIHAIHLVLSGIFDRYPKLNMIIGHWGEFIPFFLERMDEALFAEHLNHPVSYYFKNNFYITPSGMLTKPQFDLVKKEAGIDRILYAADYPYIEPEKLGVFLDELGLTDEEKEKISYTNGAKLLGLSSNN
Dicamba Decarboxylase Activity: High | Enzymatic Detection level: High

B6: 57 (protein)
chain: MAKLICVEEHVLDPAVGAATQSLVRAEAPYLPDWGSRVLDGRHVADRSRPHVIAPSESARKALEMGEPRLADMDAASIDMQVLSYGGFPQLLPAAQAIDLNRAANDKLALAAQAHPARFAGFATLPWQAPEAAARELERAVKQLGLKGALINGRPGDTFLDDARYAPILAAFDELKVPLYVHPGLPLPAVQAPYYGGFERELSARLAMFAWGWHNEAGIQVVRMLLAGVFDRHPRLQLISGHWGEMVPFFLQRLEDSIPQEASGLQRPIVQTYREHVYISPSGMFTLPHFQFIHALMGAQRILYSIDYPYQSLDGARAFIERLPISDTDKALIAHRNAERLLHL
modifications: Collimonas fungivorans
Dicamba Decarboxylase Activity: High | Enzymatic Detection level: High

B7: 4 (protein, listed as Lactobacillus buchneri)
chain: MAKVITLEEHFSSQKLGQKMAEVLPKRPIGNVSPKMQDYMQRSLPPEAELEDVTGSRIQWMDQHQISMQILSYGNQNPQNSDPKFAVELTKLANDELAKAVAKAPDRFRAFASLPVSHPTDAAAELKRGVEELGFKGAMLVRPTSQAHPFFDDPFYLPIFEAAANLNVPVYLHPSFPDSQIIDYYYSNGPWDDKVSGILGTAGYGWHTDVGIQTVRLLLSGVFEKYPNLKLISGHWGEFASFALERMDQVMYPETNLSEPISKIYRDHVYVTPSGILTEPQLKFVKDEVGIEHLLYSIDYPYIKPENSGSFIESSPLTDEEKELFAHGNAEKLLQL
Dicamba Decarboxylase Activity: High | Enzymatic Detection level: High

B8: 60 (protein, listed as Catenulispora acidiphila)
chain: MARGFVRTAVVPGFWDAGWRGAGQPGGMRVDVHAHLFPAAYLDLLDDFRQDGGVGTREVRALGGGDGERELRLRLAAMDAVGVDVQLLSTCPQGPYTGDPTAAVEAARCANVALAQTVAQYPERLRALAALPLPHILASVDELNRAMEQDGMLGAAVGTSILGRPLSHPDFEPLFAALNRRKGVLFVHPIGESAGSPLMQASKLDRVIGYAAEVSTAILQLFQAGLTVKYPDIRIIAPHMGGYLPFLIQRLDRHRDWYLPKDAPSAGQLMRGIAYDTANPLPAALRLTAEVVGPERLLLGTDYPFEQGPSLRDHIEYILAAGLPEAQAKMIVDVNAADFLDMRSGAEQPPV
Dicamba Decarboxylase Activity: No | Enzymatic Detection level: No

B9: 71 (protein, listed as Burkholderia dolosa)
chain: MARAGHRAARTRQSRPGDRTMTCSCCMSAGRRRVLGAFAALAGAPKGPRAASAAQPAAASKPTRGDATARNRHSRALLPGKASASWSATKASGSGGAFAWDDTTFTFRTPAGGLGPLPMKFIDVDARLRDMDASGVDVQALSLSVPMAYWGDRPFNAKLARAWNTAASRVHVRAPDRFVVLATLPMLDATDAIDELERASELPGVRGVYMGTNIDNRDLDDPRFAPVFARIEQLGLPVFLHPQQTVGGARLGDFYLSNLLGNPFDTAIAASHLILGGVLDRHPALHFTLPHAGGALPILVGRLDAGWTVRAETRRLAHQPSGYLRRFSYDTVSHSGPVLNFLIENVGIDRLVLGSDYCFDMGYEQPVRFLDRLDLTPDERAMVIGGNAGRLLRI
Dicamba Decarboxylase Activity: Low | Enzymatic Detection level: Low

B10: 64 (protein, listed as Achromobacter piechaudii)
chain: MAIQKIDMHAHFFPPITRQEAAALDPVNAPWLRPDADGATGQIMAGEREFRPVDATLWDPALRIEQMDRHGVDVQILCATPIMFGYTYPARPAADWAARMNDLALEHCAYAPSRLKALAQVPLQDLELACQEASRARAAGHLGVQIGNHVGPRDLDDETLVQFLIHCANNDIPVLVHPWDMMTDGRMKKWMLPWLVSMPAETQLGILSLILSGAFERIPRSLKLCFAHGGGSFAYLLGRVDNAWRHRDIIRQDCPQLPSSYTDRFYTDSAVFDPRSLRLLIDVMGEDRVLLGSDYPYPLGEQEVGRLVAHAELVPEVQQKILFRNTMTFFGLQPGLQPGLQS
Dicamba Decarboxylase Activity: Low | Enzymatic Detection level: Low

B11: 68 (protein, listed as Hoeflea phototrophica)
chain: MAIIDAHTHTLCPAVNEKVAGTIKPDSVPYQRDMSPESKEQDHTQFPELKIMFNQVERRLADMARMGIDRQVIAPAPGQQHYWAEPKLLAEISALQNDHVAELVARAPDRFAGIGTLPMTDPDAAVAEITRATRELGLRVFQIDSRVMERELSDASLDPIYAALEAAGAGLMIHPLGFSNGERLTPFFMVNSVAQPLEELLAFNHLVFGGVLDRFPKLKVYIAHGGGFAPFYIGRFDHAWKVRPEVNRLTPSAPSTYLRRIYFDTCVYRTDHIETLVRTVGADRVMLGSDYPFDMGDTDPLGLLNACQGLSDDEKATISSKVAIDFFGLET
Dicamba Decarboxylase Activity: No | Enzymatic Detection level: No

B12: 62 (protein)
chain: MAVGGKNFRDVTDQVWCPKKRIEDMDREGVDIQVLSPIPVTFSYWAKPEEAESMARIQNDFIAETVLAYPDRFVGLGTVPMQDGETAIREMERCITELNLHGIEIGTNVNGKNLDDPSFIEFFRMAEKWQVPIFIHPWETLGRDRMPHHNFMYTVGMPSETALAAATLIWSGIMEKFPRLKVCFAHGGGSFPYILPRLDQGWKVWPHLRLTTHPPSYYAKKFYFDSLNYDPINLKYMIERFGHEKIFMGSDYPFLLREVDPGKVIDETASLSEEQKAAMLGGNAAEFLNIDIKKRGVAYAESTNT
modifications: Bacillus thuringiensis serovar pulsiensis
Dicamba Decarboxylase Activity: No | Enzymatic Detection level: No

B13: 69 (protein, listed as Microbacterium testaceum)
chain: MATSTEGQDVTDVHAHLLMPGLHAEVERRVPDEVQAAADLELRRNGLASLQASGRMIGERFPRLTDVRARLAAMDEQGVDRQWVSPSPNHFYPWANEGLATWASGEANRLIAEHVALAPDRLVGLGVVPLQHPHLVVDALDDAVLGRGLAGVEISSFAGDVELSDERLESFWARAAELRAVVFLHPFGCSLDERLDRFYLSNTVGQPTENAVALSHLIFSGVLDRHPGLRLIAAHGGGYLPTAIGRSDRAWRVRPEARGCAHAPSTYLSKLWFDTVVHDERALRWLVEAAGADRVLLGSDFPFDMGLDDPVAFVRGAGLQDAEVSGILGGNAAELLRTRVHA
Dicamba Decarboxylase Activity: No | Enzymatic Detection level: No

B14: 70 (protein, listed as Alicyclobacillus acidocaldarius)
chain: MAIEPNRAADVHTHFLPTEVLEFLKREPRIQVDLERRAPDKEPFLTVEGRWSFELKRMFVDFEAFASAYRQAGIGLALVSPLPQLFVYHLPAEMGAQVAEVYNDALRDVLAPHRERFRPLATLPLADPTAAARELERRMDEGFVGAIVGPGVGEALIGDEAFWPLWEVADARRAVLFLHPLLHADPRAARLMLPNLVGVPWETTLAAAHLVLSGLLDRYPGARVLLAHGGGFLPYQIGRIEQGYDVWPQVRGRLQDRPTAYLRRMFYDNVLWSDAALRCLIDVVGADRVLAGSDFPFDLSAWPPRPGADVSVLAGGSGREGRLS
Dicamba Decarboxylase Activity: Low | Enzymatic Detection level: Low
